B1: Peroxiredoxin-6 (Mus musculus), O08709 (parent)
chain: MPGGLLLGDEAPNFEANTTIGRIRFHDFLGDSWGILFSHPRDFTPVCTTELGRAAKLAPEFAKRNVKLIALSIDSVEDHLAWSKDINAYNGETPTEKLPFPIIDDKGRDLAILLGMLDPVEKDDNNMPVTARVVFIFGPDKKLKLSILYPATTGRNFDEILRVVDSLQLTGTKPVATPVDWKKGESVMVVPTLSEEEAKQCFPKGVFTKELPSGKKYLRYTPQP

Variants of: B1
Details: with gstp1_mouse Gstp1, P19157
Sequence of gstp1_mouse Gstp1, P19157 (P19157 whole entry): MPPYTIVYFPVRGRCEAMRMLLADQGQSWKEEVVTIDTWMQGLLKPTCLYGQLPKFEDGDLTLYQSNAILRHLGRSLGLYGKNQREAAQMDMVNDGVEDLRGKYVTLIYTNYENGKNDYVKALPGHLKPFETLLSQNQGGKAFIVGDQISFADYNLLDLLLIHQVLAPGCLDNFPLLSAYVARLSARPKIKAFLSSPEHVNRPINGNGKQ

| effect of a mutation on the interaction | Variant |
| --- | --- |
| disrupting interaction | MPGGLLLGDEAPNFEANTTIGRIRFHDFLGDSWGILFSHPRDFTPVSTTELGRAAKLAPEFAKRNVKLIALSIDSVEDHLAWSKDINAYNGETPTEKLPFPIIDDKGRDLAILLGMLDPVEKDDNNMPVTARVVFIFGPDKKLKLSILYPATTGRNFDEILRVVDSLQLTGTKPVATPVDWKKGESVMVVPTLSEEEAKQCFPKGVFTKELPSGKKYLRYTPQP [C47S] |

Source: IntAct's records for PubMed 23164639
